# The RNAGym collection of RNA variant scans (doi:10.7554/elife.80360)
# B1: HDV Ribozyme (parent)
# chain: GGCCGGCAUGGUCCCAGCCUCCUCGCUGGCGCCGGCUGGGCAACAUUCCGAGGGGACCGUCCCCUCGGUAAUGGCGAAUGGGACCCA
# Variants of: B1
# Test: self-cleavage, relative activity (ratio to wild type); higher = more cleavage; co-transcriptional
row,Variant,self-cleavage
1,GGCCGGCAUGGUCCCAGCCUCCUCGCUGGCGCCGACUGGGCAACAUUCCGAGGGGACCGUCCCCUCGGUAGUGGCGAAUGGGACCCA [G35A A71G],0.464
2,GGCCGGCAUGGUCCCAGCCUCCUCGCUGGCGCCGCCUGGGCAACAUUCCGAGGGGACUGUCCCCUCGGUAAUGGCGAAUGGGACCCA [G35C C58U],0.231
3,GGCCGGCAUGGUCCCAGCCUCCUCGCUGGCGCCGCCUGGGCAACAUUCCGAGGGGACGGUCCCCUCGGUAAUGGCGAAUGGGACCCA [G35C C58G],0.161
4,GGCCGGCAUGGUCCCAGCCUCCUCGCUGGCGCCGACUGGGCACCAUUCCGAGGGGACCGUCCCCUCGGUAAUGGCGAAUGGGACCCA [G35A A43C],0.0272
5,GGCCGGCAUGGUCCCAGCCUCCUCGCUGGCGCCGCCUGGGCGACAUUCCGAGGGGACCGUCCCCUCGGUAAUGGCGAAUGGGACCCA [G35C A42G],0.192
6,GGCCGGCAUGGUCCCAGCCUCCUCGCUGGCGCCGCCUGGGCCACAUUCCGAGGGGACCGUCCCCUCGGUAAUGGCGAAUGGGACCCA [G35C A42C],0.107
7,GGCCGGCAUGGUCCCAGCCUCCUCGCUGGCGCCGACUGGGCAACAUUCCGAGGGGACCGUCCCCUCGGUAAUGGCGAAUGGGACCAA [G35A C86A],0.643
8,GGCCGGCAUGGUCCCAGCCUCCUCGCUGGCGCCGACUGGGCAACAUUACGAGGGGACCGUCCCCUCGGUAAUGGCGAAUGGGACCCA [G35A C48A],0.659
9,GGCCGGCAUGGUCCCAGCCUCCUCGCUGGCGCCGCCUGGGCAACAUUCCGAGGGGACCGUGCCCUCGGUAAUGGCGAAUGGGACCCA [G35C C61G],0.217
10,GGCCGGCAUGGUCCCAGCCUCCUCGCUGGCGCCGACUGGGUAACAUUCCGAGGGGACCGUCCCCUCGGUAAUGGCGAAUGGGACCCA [G35A C41U],0.524
11,GGCCGGCAUGGUCCCAGCCUCCUCGCUGGCGCCGACUGGGGAACAUUCCGAGGGGACCGUCCCCUCGGUAAUGGCGAAUGGGACCCA [G35A C41G],0.222
12,GGCCGGCAUGGUCCCAGCCUCCUCGCUGGCGCCGACUGGGCAACAUUCCGAGGGGCCCGUCCCCUCGGUAAUGGCGAAUGGGACCCA [G35A A56C],0.346
13,GGCCGGCAUGGUCCCAGCCUCCUCGCUGGCGCCGCCUGGGCAACAUUCCGAGGGGACCGUCCCCUCGGUAAUGGCGAAUGGGGCCCA [G35C A83G],0.237
14,GGCCGGCAUGGUCCCAGCCUCCUCGCUGGCGCCGCCUGGGCAACAUUCCGAGGGGACCGUCCCCUCGGUAAUGGCGAAUGGGCCCCA [G35C A83C],0.162
15,GGCCGGCAUGGUCCCAGCCUCCUCGCUGGCGCCGACUGGGCAACAUUCCGAGGCGACCGUCCCCUCGGUAAUGGCGAAUGGGACCCA [G35A G54C],0.69
16,GGCCGGCAUGGUCCCAGCCUCCUCGCUGGCGCCGCCUGGGCAACAUUACGAGGGGACCGUCCCCUCGGUAAUGGCGAAUGGGACCCA [G35C C48A],0.269

row,Variant,self-cleavage
1,GGCCGGCAUGGUCCCAGCCUCCUCGCUGGCGCCGACUGGGCAACAUUCCGAGGGCACCGUCCCCUCGGUAAUGGCGAAUGGGACCCA [G35A G55C],0.358
2,GGCCGGCAUGGUCCCAGCCUCCUCGCUGGCGCCGCCUGGGCAACAUUCCGAGGGGACCGUCCCCUCGGUAAUGGCGAAUGGGACCCU [G35C A87U],0.208
3,GGCCGGCAUGGUCCCAGCCUCCUCGCUGGCGCCGACUGGGCAACAUUCCGAGGGGACCGUCCCCUCGGUAAUGUCGAAUGGGACCCA [G35A G74U],0.231
4,GGCCGGCAUGGUCCCAGCCUCCUCGCUGGCGCCGACUGGGCAACAUACCGAGGGGACCGUCCCCUCGGUAAUGGCGAAUGGGACCCA [G35A U47A],0.466
5,GGCCGGCAUGGUCCCAGCCUCCUCGCUGGCGCCGACUGGGCAACAUUCCGAGGGGACCGUCCCUUCGGUAAUGGCGAAUGGGACCCA [G35A C64U],0.475
6,GGCCGGCAUGGUCCCAGCCUCCUCGCUGGCGCCGACUGGGCAACAUUCCGAGGGGACCUUCCCCUCGGUAAUGGCGAAUGGGACCCA [G35A G59U],0.646
7,GGCCGGCAUGGUCCCAGCCUCCUCGCUGGCGCCGACUGGGCAACAUUCCGAGGGGACCAUCCCCUCGGUAAUGGCGAAUGGGACCCA [G35A G59A],0.494
8,GGCCGGCAUGGUCCCAGCCUCCUCGCUGGCGCCGACUGGGCAACAUUCCGAGGGGACCCUCCCCUCGGUAAUGGCGAAUGGGACCCA [G35A G59C],0.61
9,GGCCGGCAUGGUCCCAGCCUCCUCGCUGGCGCCGACUGGGCAACAUUCCGAGAGGACCGUCCCCUCGGUAAUGGCGAAUGGGACCCA [G35A G53A],0.411
10,GGCCGGCAUGGUCCCAGCCUCCUCGCUGGCGCCGACUGGGCAACAUUCCGAGGGGACCGUCCCCUCGGUUAUGGCGAAUGGGACCCA [G35A A70U],0.62
11,GGCCGGCAUGGUCCCAGCCUCCUCGCUGGCGCCGCCUGGGCAACAUUCCGAGGGGACCGUCCCCUCGGUAAUGGGGAAUGGGACCCA [G35C C75G],0.391
12,GGCCGGCAUGGUCCCAGCCUCCUCGCUGGCGCCUGCUGGGCAACAUUCCGAGGGGACCGUCCCCUCGGUAAUGGCGAAGGGGACCCA [G34U U79G],0.0978
13,GGCCGGCAUGGUCCCAGCCUCCUCGCUGGCGCCGACUGGGCAACAUUCCGAGGGGACCGUUCCCUCGGUAAUGGCGAAUGGGACCCA [G35A C61U],0.511
14,GGCCGGCAUGGUCCCAGCCUCCUCGCUGGCGCCGCCUGGGCAACAUUCCGAGGGGACCGUCCCCUCGGUAGUGGCGAAUGGGACCCA [G35C A71G],0.262
15,GGCCGGCAUGGUCCCAGCCUCCUCGCUGGCGCCGCCUGGGCAACAUUCCGAGGGGACCGUCCCCUCGGUAUUGGCGAAUGGGACCCA [G35C A71U],0.128
16,GGCCGGCAUGGUCCCAGCCUCCUCGCUGGCGCCGCCUGGGAAACAUUCCGAGGGGACCGUCCCCUCGGUAAUGGCGAAUGGGACCCA [G35C C41A],0.237
